Assays:
Test in all cases: PEPSCAN ELISA, looped 15-mer, 10 ug/ml
[1] = target: looped peptide … (rabies virus strain ERA)
[2] = target: looped peptide … (rabies virus strain ERA); remark: listed apart in the source
[3] = target: looped peptide … (rabies virus strain ERA); remark: listed apart in the source
[4] = target: looped peptide … (rabies virus strain ERA); remark: listed apart in the source
[5] = target: looped peptide … (rabies virus strain ERA); remark: listed apart in the source
[6] = target: looped peptide … (rabies virus strain ERA); remark: listed apart in the source
[7] = target: looped peptide … (rabies virus strain ERA); remark: listed apart in the source
[8] = target: looped peptide … (rabies virus strain ERA); remark: listed apart in the source
[9] = target: looped peptide … (rabies virus strain ERA); remark: listed apart in the source
[10] = target: looped peptide … (rabies virus strain ERA); remark: listed apart in the source
[11] = target: looped peptide … (rabies virus strain ERA); remark: listed apart in the source
[12] = target: looped peptide … (rabies virus strain ERA); remark: listed apart in the source
[13] = target: looped peptide … (rabies virus strain ERA); remark: listed apart in the source
[14] = target: looped peptide … (rabies virus strain ERA); remark: listed apart in the source
[15] = target: looped peptide … (rabies virus strain ERA); remark: listed apart in the source
[16] = target: looped peptide … (rabies virus strain ERA); remark: listed apart in the source
[17] = target: looped peptide … (rabies virus strain ERA); remark: listed apart in the source
[18] = target: looped peptide … (rabies virus strain ERA); remark: listed apart in the source
[19] = target: looped peptide … (rabies virus strain ERA); remark: listed apart in the source
[20] = target: looped peptide … (rabies virus strain ERA); remark: listed apart in the source
[21] = target: looped peptide … (rabies virus strain ERA); remark: listed apart in the source
[22] = target: looped peptide … (rabies virus strain ERA); remark: listed apart in the source
[23] = target: looped peptide … (rabies virus strain ERA); remark: listed apart in the source
[24] = target: looped peptide … (rabies virus strain ERA); remark: listed apart in the source
[25] = target: looped peptide … (rabies virus strain ERA); remark: listed apart in the source
[26] = target: looped peptide … (rabies virus strain ERA); remark: listed apart in the source
[27] = target: looped peptide … (rabies virus strain ERA); remark: listed apart in the source
[28] = target: looped peptide … (rabies virus strain ERA); remark: listed apart in the source
[29] = target: looped peptide … (rabies virus strain ERA); remark: listed apart in the source
[30] = target: looped peptide … (rabies virus strain ERA); remark: listed apart in the source
[31] = target: looped peptide … (rabies virus strain ERA); remark: listed apart in the source
[32] = target: looped peptide … (rabies virus strain ERA); remark: listed apart in the source
[33] = target: looped peptide … (rabies virus strain ERA); remark: listed apart in the source
[34] = target: looped peptide … (rabies virus strain ERA); remark: listed apart in the source
[35] = target: looped peptide … (rabies virus strain ERA); remark: listed apart in the source
[36] = target: looped peptide … (rabies virus strain ERA); remark: listed apart in the source
[37] = target: looped peptide … (rabies virus strain ERA); remark: listed apart in the source
[38] = target: looped peptide … (rabies virus strain ERA); remark: listed apart in the source
[39] = target: looped peptide … (rabies virus strain ERA); remark: listed apart in the source
[40] = target: looped peptide … (rabies virus strain ERA); remark: listed apart in the source
[41] = target: looped peptide … (rabies virus strain ERA); remark: listed apart in the source
[42] = target: looped peptide … (rabies virus strain ERA); remark: listed apart in the source
[43] = target: looped peptide … (rabies virus strain ERA); remark: listed apart in the source
[44] = target: looped peptide … (rabies virus strain ERA); remark: listed apart in the source
[45] = target: looped peptide … (rabies virus strain ERA); remark: listed apart in the source
[46] = target: looped peptide … (rabies virus strain ERA); remark: listed apart in the source
[47] = target: looped peptide … (rabies virus strain ERA); remark: listed apart in the source
[48] = target: looped peptide … (rabies virus strain ERA); remark: listed apart in the source
[49] = target: looped peptide … (rabies virus strain ERA); remark: listed apart in the source
[50] = target: looped peptide … (rabies virus strain ERA); remark: listed apart in the source
[51] = target: looped peptide … (rabies virus strain ERA); remark: listed apart in the source
[52] = target: looped peptide … (rabies virus strain ERA); remark: listed apart in the source
[53] = target: looped peptide … (rabies virus strain ERA); remark: listed apart in the source
[54] = target: looped peptide … (rabies virus strain ERA); remark: listed apart in the source
[55] = target: looped peptide … (rabies virus strain ERA); remark: listed apart in the source
[56] = target: looped peptide … (rabies virus strain ERA); remark: listed apart in the source
[57] = target: looped peptide … (rabies virus strain ERA); remark: listed apart in the source
[58] = target: looped peptide … (rabies virus strain ERA); remark: listed apart in the source
[59] = target: looped peptide … (rabies virus strain ERA); remark: listed apart in the source
[60] = target: looped peptide … (rabies virus strain ERA); remark: listed apart in the source
[61] = target: looped peptide … (rabies virus strain ERA); remark: listed apart in the source
[62] = target: looped peptide … (rabies virus strain ERA); remark: listed apart in the source
[63] = target: looped peptide … (rabies virus strain ERA); remark: listed apart in the source
[64] = target: looped peptide … (rabies virus strain ERA); remark: listed apart in the source
[65] = target: looped peptide … (rabies virus strain ERA); remark: listed apart in the source
[66] = target: looped peptide … (rabies virus strain ERA); remark: listed apart in the source
[67] = target: looped peptide … (rabies virus strain ERA); remark: listed apart in the source
[68] = target: looped peptide … (rabies virus strain ERA); remark: listed apart in the source
[69] = target: looped peptide … (rabies virus strain ERA); remark: listed apart in the source
[70] = target: looped peptide … (rabies virus strain ERA); remark: listed apart in the source
[71] = target: looped peptide … (rabies virus strain ERA); remark: listed apart in the source
[72] = target: looped peptide … (rabies virus strain ERA); remark: listed apart in the source
[73] = target: looped peptide … (rabies virus strain ERA); remark: listed apart in the source
[74] = target: looped peptide … (rabies virus strain ERA); remark: listed apart in the source
[75] = target: looped peptide … (rabies virus strain ERA); remark: listed apart in the source
[76] = target: looped peptide … (rabies virus strain ERA); remark: listed apart in the source
[77] = target: looped peptide … (rabies virus strain ERA); remark: listed apart in the source
[78] = target: looped peptide … (rabies virus strain ERA); remark: listed apart in the source
[79] = target: looped peptide … (rabies virus strain ERA); remark: listed apart in the source
[80] = target: looped peptide … (rabies virus strain ERA); remark: listed apart in the source
[81] = target: looped peptide … (rabies virus strain ERA); remark: listed apart in the source
[82] = target: looped peptide … (rabies virus strain ERA); remark: listed apart in the source
[83] = target: looped peptide … (rabies virus strain ERA); remark: listed apart in the source
[84] = target: looped peptide … (rabies virus strain ERA); remark: listed apart in the source
[85] = target: looped peptide … (rabies virus strain ERA); remark: listed apart in the source
[86] = target: looped peptide … (rabies virus strain ERA); remark: listed apart in the source
[87] = target: looped peptide … (rabies virus strain ERA); remark: listed apart in the source
[88] = target: looped peptide … (rabies virus strain ERA); remark: listed apart in the source
[89] = target: looped peptide … (rabies virus strain ERA); remark: listed apart in the source
[90] = target: looped peptide … (rabies virus strain ERA); remark: listed apart in the source
[91] = target: looped peptide … (rabies virus strain ERA); remark: listed apart in the source
[92] = target: looped peptide … (rabies virus strain ERA); remark: listed apart in the source
[93] = target: looped peptide … (rabies virus strain ERA); remark: listed apart in the source
[94] = target: looped peptide … (rabies virus strain ERA); remark: listed apart in the source
[95] = target: looped peptide … (rabies virus strain ERA); remark: listed apart in the source
[96] = target: looped peptide … (rabies virus strain ERA); remark: listed apart in the source
[97] = target: looped peptide … (rabies virus strain ERA); remark: listed apart in the source
[98] = target: looped peptide … (rabies virus strain ERA); remark: listed apart in the source

B1: human monoclonal antibody CRJA (antibody, V domains shown)
VH: EVQLLESGGGLVQPGGSLRLSCAASGFTFSNYAMSWVRQAPGKGLEWVSAISASGHSTYLADSVKGRFTISRDNSKNTLYLQMNSLRAEDTAVYYCAKDREVTMIVVLNGGFDYWGQGTRVTVSS
VL: EIVLTQSPATLSLSPGERATLACRASQTASRYLAWYQQKPGQAPRLLIYDTSNRATGIPARFSGSGSGTDFTLSISSLEPEDFAVYYCQQRFNWPWTFGQGTKVEFK
Binder B1 has an OD value [1] of 104, an OD value [2] of 45 and an OD value [3] of 118. For the same binder, the OD value [4] was 86, the OD value [5] was 78 and the OD value [6] was 84. For the same binder, the OD value [7] was 82, the OD value [8] was 100 and the OD value [9] was 92. For the same binder, the OD value [10] was 100, the OD value [11] was 43 and the OD value [12] was 96. The OD value [13] was 69, the OD value [14] was 96 and the OD value [15] was 100. The OD value [16] was 41, the OD value [17] was 104 and the OD value [18] was 113. The OD value [19] was 62, the OD value [20] was 71 and the OD value [21] was 104. It also gave an OD value [22] of 92, an OD value [23] of 92 and an OD value [24] of 75. For the same binder, the OD value [25] was 88, the OD value [26] was 83 and the OD value [27] was 96. The OD value [28] was 46, the OD value [29] was 93 and the OD value [30] was 96. It also gave an OD value [31] of 88, an OD value [32] of 105 and an OD value [33] of 90. For the same binder, the OD value [34] was 51, the OD value [35] was 64 and the OD value [36] was 110. For the same binder, the OD value [37] was 57, the OD value [38] was 110 and the OD value [39] was 82. It also gave an OD value [40] of 88, an OD value [41] of 93 and an OD value [42] of 98. It also gave an OD value [43] of 93, an OD value [44] of 104 and an OD value [45] of 92. It also gave an OD value [46] of 120, an OD value [47] of 59 and an OD value [48] of 113. It also gave an OD value [49] of 108, an OD value [50] of 94 and an OD value [51] of 92. It also gave an OD value [52] of 90, an OD value [53] of 49 and an OD value [54] of 88. It also gave an OD value [55] of 108, an OD value [56] of 73 and an OD value [57] of 90. The OD value [58] was 90, the OD value [59] was 110 and the OD value [60] was 90. The OD value [61] was 80, the OD value [62] was 50 and the OD value [63] was 90. The OD value [64] was 93, the OD value [65] was 93 and the OD value [66] was 90. It also gave an OD value [67] of 92, an OD value [68] of 49 and an OD value [69] of 94. For the same binder, the OD value [70] was 110, the OD value [71] was 71 and the OD value [72] was 71. It also gave an OD value [73] of 55, an OD value [74] of 86 and an OD value [75] of 112. It also gave an OD value [76] of 113, an OD value [77] of 100 and an OD value [78] of 74. It also gave an OD value [79] of 87, an OD value [80] of 96 and an OD value [81] of 51. It also gave an OD value [82] of 100, an OD value [83] of 129 and an OD value [84] of 66. The OD value [85] was 90, the OD value [86] was 84 and the OD value [87] was 56. For the same binder, the OD value [88] was 88, the OD value [89] was 113 and the OD value [90] was 123. For the same binder, the OD value [91] was 72, the OD value [92] was 104 and the OD value [93] was 90. It also gave an OD value [94] of 79, an OD value [95] of 98 and an OD value [96] of 100. For the same binder, the OD value [97] was 72 and the OD value [98] was 125.

Source: patent US20060263802A1 (CRUCELL HOLLAND B V, published 2006)
